Assay results taken from US20260159583A1 (CHIA TAI TIANQING PHARMACEUTICAL GROUP, published 2026).

Target: T1, human GPRC5D protein (human, UniProt Q9NZD1 1-345)
T1 construct: also called hGPRC5D
Assay: FACS, subclone supernatant on H929 cells
Protocol: An H929 (i.e., NCI-H929) cell suspension at a cell concentration of 3× 10⁵ cells/mL was plated into a 96-well U-bottom plate at 100 μL/well. The subcloned cell culture supernatant was added at 100 μL/well or an equal volume of culture medium (hereinafter referred to as Medium) was added. The mixture was mixed well, and then incubated at 4° C. for 1 h. The cells were washed with PBS containing 2% (by volume) of FBS. An AlexaFluor488-conjugated goat anti-mouse IgG+IgM (H+L) antibody (Jackson Immuno Research, Cat. No.: 115-545-044) was added, and the mixture was incubated at 4° C. for 1 h. The cells were washed with PBS containing 2% (by volume) of FBS and then resuspended. Fluorescence signals were detected on a flow cytometer (Sartorius, IQue3). The binding of the mouse anti-hGPRC5D antibody to H929 cells was analyzed by the mean fluorescence intensity (MFI) of staining.

T1 sequence (Q9NZD1 whole entry): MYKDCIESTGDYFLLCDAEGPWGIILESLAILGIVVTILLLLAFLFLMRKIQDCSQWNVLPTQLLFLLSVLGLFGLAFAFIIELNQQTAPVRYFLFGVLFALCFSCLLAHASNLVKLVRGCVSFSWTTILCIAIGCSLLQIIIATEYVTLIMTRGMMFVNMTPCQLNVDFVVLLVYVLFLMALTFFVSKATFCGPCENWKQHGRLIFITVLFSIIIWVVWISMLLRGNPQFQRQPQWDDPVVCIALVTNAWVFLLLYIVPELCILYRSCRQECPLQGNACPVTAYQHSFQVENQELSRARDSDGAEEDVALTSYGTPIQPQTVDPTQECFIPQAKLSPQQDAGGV

MFI [MFI]	Binder
13200	mouse anti-hGPRC5D antibody mu-105 (antibody, V domains shown, Tested as subcloned hybridoma culture supernatant) VH: EVQLQQSGPELVKPGASVKMSCKASGYTFTDYYMNWVKQSHGKSLEWIGYIYPNNGGTGYNQRFKGKATLTADKSSSTAYMELRSLTSEDSAVYYCARWGGTRLGYYAMDYWGQGTSVTVSS VL: DIVMTQSQKFMSTSVGDRVSVTCKASQNVGTNVVWYQQKPGQSPKLLIYWASTRHTGVPDRFTGSGSGTDFTLTISNVQSEDLADYFCQQYSRYPYTFGGGTKLEIK
11900	mouse anti-hGPRC5D antibody mu-89 (antibody, V domains shown, Tested as subcloned hybridoma culture supernatant) VH: EVQLVESGGDLVKPGGSLKLSCAASGFTFSSYGMSWVRQTPDKRLEWVATISSGGSYTYYPDSVKGRFTFSRDNAKNTLYLQMSSLKSEDTAMYYCVRQALRYHMDSWGQGTSVTVSS VL: DIVMTQSQKFMSTSVGDRVSVTCKASQNVGTNVAWYQQKPGQSPKALIYSASYRYSGVPDRFTGSGSGTDFTLTISNVQSEDLADFFCQQYYSYPWTFGGGTKLEIK
59300	mouse anti-hGPRC5D antibody mu-169 (antibody, V domains shown, Tested as subcloned hybridoma culture supernatant) VH: EVKLVESGGGLVKPGASLKLSCAASGFTFSNYGMSWVRQTSDKRLEWVASISSGGGRIYYPDNVKGRFTISRENAKNTLYLQMSSLKSEDTALYYCTRHAMDNWGQGTSVIVSS VL: QIVLTQSPAIMSASPGEKVTMTCSASSSVSNMYWYQQKSGTSPKRWIYDTSKLASGVPARFSGSGSGTSYSLTISSMEAEDASTYYCQQWSSNPLTFGAGTTLELK
12800	mouse anti-hGPRC5D antibody mu-131 (antibody, V domains shown, Tested as subcloned hybridoma culture supernatant) VH: EVQLQQSGPELVKPGASVKMSCKASGYTFTNYVMHWVKQKPGQGLEWIGYFNPYNDGTNYNEKFKGKATLTSDKSSNTAYMELSSLTSEDSAVYYCARGGVRRYFDVWGAGTTVTVSS VL: DIQMTQSPSSLSASLGERVSLTCRASQDIGSNLNWLQLGPDGTIKRLIYATFSLDSGVPKRFSGSRSGSDYSLTISSLESEDFVDYYCQQYANFPPTFGGGTKLEIK
15700	mouse anti-hGPRC5D antibody mu-128 (antibody, V domains shown, Tested as subcloned hybridoma culture supernatant) VH: DVQLVESGGGLVQPGGSRKVSCAASGFTFSSFGMHWVRQAPEKGLEWVAYISRGSSTIYYADTVKGRFTISRDNPKNTLFLQMTSLRSEDTAMYYCARSGYGSSSYYFDYWGQGTTLTVSS VL: ENVLTQSPAIMSASPREKVTMTCRASSSIRSSYLHWYQQKSGASPKLWIYSTSNLASGVPARFSGSGSGTSYSLTISSVEAEDAATYYCQQFSGYPLTFGGGTKLEIK
